Earlier results, collected in patent US6872537B1, “Assays for the detection of microtubule depolymerization inhibitors” (Regents of the University of California, priority 1998, dated 2005).

Conditions: literature values for comparison

Substance: p97: AAA ATPase cited for comparison [reference compound]
- ATPase activity of other AAA family members: 1 ATP/sec
